For one molecule, Kd results are on record in article doi:10.1101/2021.05.16.444004 (bioRxiv, 2021).

The test concerns the target SARS-CoV-2 RBD-SD1 (SARS-CoV-2, Wuhan-Hu-1, UniProt P0DTC2). In words: BLI. (In general: Biolayer interferometry detects binding as a change in optical thickness at a sensor tip.)

B1: 54042-4 IgG (antibody, V domains shown)
VH: QITLKESGPTLVKPTQTLTLTCTFSGFSLSTIGVGVSWIRQPPGKALDWLALIYWDDDKRYSPSLKSRLTVTMDTSKNQVVLTLTNMDPVDTATYFCAHGLFSSSDWGGLDVWGQGTTVTVSS
VL: DMQMTQSPSSLSASVGDRVTITCRASQSVFTYLNWYQQKPGKAPKLLIYAASRLQSGVPSRFRGSGSGTDFTLTISSLQPEDFATYYCQQSHSTPFIFGPGTKVDIK
Broadly, the Kd is the equilibrium constant for the complex coming apart. In the case of B1, the dissociation constant (Kd) came out at 21.8 nM.
